Measurements taken from the Immune Epitope Database (IEDB).

Tests used:
[1] = target: HLA-A*02:06; assay: IEDB peptide-MHC binding, cellular MHC/competitive/fluorescence; ≥ and ≤ were set here for values at or beyond the usual limits of such assays
[2] = target: HLA-A*02:03; assay: IEDB peptide-MHC binding, purified MHC/competitive/radioactivity; ≥ and ≤ were set here for values at or beyond the usual limits of such assays
[3] = target: HLA-A*02:01; assay: as above
[4] = target: HLA-A*02:02; assay: as above
[5] = target: HLA-A*68:02; assay: as above
[6] = target: HLA-A*02:01; assay: IEDB peptide-MHC binding, cellular MHC/competitive/fluorescence; ≥ and ≤ were set here for values at or beyond the usual limits of such assays
[7] = target: HLA-A*68:02; assay: as above
[8] = target: HLA-A*02:06; assay: IEDB peptide-MHC binding, purified MHC/competitive/radioactivity; ≥ and ≤ were set here for values at or beyond the usual limits of such assays
[9] = source organism: Vaccinia virus WR
[10] = source organism: Influenza A virus
[11] = source organism: Hepacivirus hominis

Sequence	IC50 [1, 9] [µM]	IC50 [2, 9] [µM]	IC50 [3, 9] [µM]	IC50 [4, 9] [µM]	IC50 [5, 9] [µM]	IC50 [7, 9] [µM]	IC50 [8, 9] [µM]	other results
GLILFVLAL	7.81	0.452	0.175	0.129	4.34	–	–	–
YVEHDPRLV	22.6	0.711	4.74	1.18	1.93	–	–	–
ELWARISSSL	9.3	0.324	1.32	0.175	0.022	–	–	–
CLINDPWVL	–	–	–	–	–	–	–	IC50 [1, 10]: 6.16 µM; IC50 [2, 10]: 0.255 µM; IC50 [3, 10]: 0.127 µM; IC50 [4, 10]: 0.31 µM; IC50 [5, 10]: 4.55 µM
EIMDKEQLL	26.4	0.427	3.96	0.183	0.291	–	–	–
VIPDELIDVL	–	4.59	–	2.49	–	9.26	0.298	IC50 [6, 9]: 33 µM
QLYTISSESL	–	0.245	–	0.072	–	6.88	4.74	IC50 [6, 9]: 5.29 µM
QLVWMACHSAA	–	–	–	–	–	–	–	IC50 [1, 10]: ≥ 70 µM; IC50 [6, 10]: 11.4 µM
DLNAVTTNNL	7.52	1.63	1.61	1.83	3.37	–	–	–
RVLYDEFVT	–	1.41	–	2.17	–	28	1.72	IC50 [6, 9]: 13.5 µM
DIMTSTRTI	21.8	0.079	3.46	3.45	0.078	–	–	–
ELSRLRYNL	18.6	0.254	0.726	0.00093	0.001	–	–	–
LLNVQTLISL	–	0.016	0.073	0.024	–	14.5	0.097	–
LLGLILFVL	8.13	1.85	0.724	0.266	0.906	–	–	–
ALVLLILMTA	–	–	–	–	–	–	–	IC50 ([7]; source organism: SARS-CoV1): 12.5 µM; IC50 ([2]; source organism: SARS-CoV1): 0.051 µM; IC50 ([8]; source organism: SARS-CoV1): 0.061 µM; IC50 ([3]; source organism: SARS-CoV1): 0.325 µM; IC50 ([4]; source organism: SARS-CoV1): 0.067 µM
LVFLILCFT	–	–	–	–	–	–	–	IC50 ([7]; source organism: SARS-CoV1): 6.68 µM; IC50 ([2]; source organism: SARS-CoV1): 1.85 µM; IC50 ([8]; source organism: SARS-CoV1): 1.37 µM; IC50 ([3]; source organism: SARS-CoV1): 0.507 µM; IC50 ([4]; source organism: SARS-CoV1): 2.49 µM
FMLCLLLLSV	–	–	–	–	–	–	–	IC50 [7, 11]: 28.1 µM; IC50 [2, 11]: 0.315 µM; IC50 [8, 11]: 0.194 µM; IC50 [3, 11]: 0.149 µM; IC50 [4, 11]: 0.472 µM
RLLDLSSWFT	–	–	–	–	–	–	–	IC50 [7, 11]: 11.1 µM; IC50 [2, 11]: 0.316 µM; IC50 [8, 11]: 0.082 µM; IC50 [3, 11]: 0.02 µM; IC50 [4, 11]: 0.303 µM
SLVSKHWELT	–	0.035	0.096	0.409	–	16.3	2.69	–
VLALYSPPLI	–	0.101	0.055	0.016	–	14.4	0.868	–
LIAGIILLI	8.22	0.039	0.109	0.00017	0.02	–	–	–
RLYDYFTRVT	–	0.551	–	2.45	–	7.34	0.691	IC50 [6, 9]: 6.11 µM
YLIRALTL	–	–	–	–	–	–	–	IC50 [7, 10]: 9.52 µM; IC50 [2, 10]: 0.145 µM; IC50 [8, 10]: 2.52 µM; IC50 [3, 10]: 0.607 µM; IC50 [4, 10]: 0.216 µM
YLVTRNADV	–	–	–	–	–	–	–	IC50 [7, 11]: ≥ 70 µM; IC50 [2, 11]: 0.062 µM; IC50 [8, 11]: 4.32 µM; IC50 [3, 11]: 0.296 µM; IC50 [4, 11]: 0.055 µM
YLGHSAGFT	–	0.225	1.56	0.874	–	8.45	4.54	–
NTNQGNILM	5.94	1.15	4.58	1.7	0.664	–	–	–
FLDWIKDIM	–	0.297	0.019	0.00078	–	26.8	0.162	–
